Data set [1] concerns the molecule itself. Put plainly: cryo-EM structure; E. coli MukEF 1 uM with 4 uM gp5.9 in 20 mM Tris, 200 mM NaCl, 0.5 mM TCEP, 0.05 % β-octyl glucoside, pH 7.4; focused refinement on gp5.9/MukE.
Data set [2] deals with the molecule itself. Put plainly: cryo-EM structure; wild-type P. thracensis MukBEF dimers 150 nM with nicked plasmid pFB526, 5 mM ATP, 10 mM MgCl2, optionally Na3VO4 or BeSO4/NaF; datasets pooled; open-gate and DNA capture states.

B1: T7 gp5.9 (untagged after cleavage, from insect cells) (natural protein, bacteriophage T7)
chain: MSRDLVTIPRDVWNDIQGYIDSLERENDSLKNQLMEADEYVAELEEKLNGTS
notes: gp5.9 of bacteriophage T7; Used as 'gp5.9 dimers' in SEC; source: Hi5 insect cells, purified (Talon, 3C cleavage, HisTrap flowthrough, MonoQ)
A word on the stoichiometry N: it is a count of units in the complex or per binding partner. Consider B1, for which, in data set [1], the “stoichiometry N” value came out at 2.

B2: P. thracensis MukB, wild type, as subunit of the MukBEF complex used for cryo-EM (natural protein, Photorhabdus thracensis, UniProt A0A0F7LRY2 1-1482, looked up)
chain: MIERGKFRSLTLVNWNGFFARTFDLDELVTTLSGGNGAGKSTTMAAFVTALIPDLTLLHFRNTTEAGATSGSRDKGLHGKLRAGVCYSTLDVINSRHQRVVVGVRLQQVAGRDRKVDIKPFMIQGLPTAIQPTQLLTENVGERQARVLPLNELKDRLDEMEGVQFKQFNSITDYHAQMFDLGVIPKRLRSASDRSKFYRLIEASLYGGISSAITRSLRDYLLPENSGVRKAFQDMEAALRENRITLEAIRVTQSDRDLFKHLITEATSYVSADYMRHANERRTHLDEALALRGELFGSHKQLATEQYRHVEMARELAEQSGASSDLETDHQAASDHLNLVQTAMRQQEKIDRYQVDLEELSYRLEEQTDVVEEAGELQAEYEARTEATEQEVDELKSQLADYQQALDVQQTRAIQYQQALQALERARELCRLPDLSVDNAEEWLETFQAKEQQATEALLALEQKLSVADAAHNQFEQAYQLVKNIVGETSRSEAWQSARELLRDWPSQRHLADRVQPLRMRLSELEQRLNNQQNAERLLSEFCKRQGRQYQAEDLEALQNELEARQEALSLSVNEGGERRMEMRQELEQLKQKIQSLTARAPVWLAAQDTLNQLCEQSGETLASSNDVTEYMQQLLEREREATVERDEVAAQKRELEKQIERLSQPSGAEDSRMIALAERFGGVLLSEIYDDITIDDAPYFSALYGPARHGIVVPDLSLVRPHLETLEDCPEDLYLIEGDPQSFDDSVFNAEEQTNAVLVKSSDRQWRYSRYPELPLFGRAARENRLEALNLERDALAERYATLSFDVQKIQRAHQAFSQFVGKHLSVAFDTDPEAEIRELRQRHTELEREVSRFEDQTQQQRQQYAQAKESLTTLNRLIPQVTLLLDETLIDRVEEVREEMDEAQEAARFLQQHGSALTKLEPMVAVLQSDPQQHEQLQQDYETAKHSQHQAKQQAFALVEIVQRRVHFSYSDSAGMLSENADLNDKLRQRLEHAESDRSRAREQLRQQQAQYSQFNQVLASLKSSYETKQDMLKELLQEMKDIGVQADANAEMRARERRDRLHEALSVNRSRVNQLEKQIAFCEAEMENVQKKLRKLERDYYQIREQVVSAKAGWCAVMRMVKDNGVERRLHRRELAYMEGGALRSMSDKALGALRLAVADNEHLRDALRLSEDPKRPERKVQFFIAVYQHLRERIRQDIIRTDDPVDAIEQMEIELARLTEELTAREQKLAISSKSVANIIRKTIQREQNRIRMLNQGLQAVSFGQVRGVRLNVNVRESHAILLDVLSEQQEQHQDLFNSQRLTFSEAMAKLYQRLNPQVDMGQRLPQTIGEELLDYRNYLELDVEVNRGSDGWLKAESGALSTGEAIGTGMSILVMVVQSWEEESRRLRGKDISPCRLLFLDEAARLDAKSIATLFELCERLQMQLIIAAPENISPEKGTTYKLVRKVFKNHEHVHVVGLRGFGQDAPATQLISDVTA
notes: MukB of Photorhabdus thracensis; the MukB chain of m14; also called κ-MukB; ν-MukB; source: E. coli BL21-Gold(DE3), polycistronic pFB403, purified as the MukBEF complex; not shown: His6-SUMO, N-terminal, cleaved
Turning to B2, the binding result in data set [2] is listed as “binds”.

(Values after paper PMC7617805, “Mechanism of DNA capture by the MukBEF SMC complex and its inhibition by a viral DNA mimic” (Cell, 2025).)
